“Also recorded” adds a separate entry of the source.
Biological target: T1, human complement 5a receptor (C5aR) (Homo sapiens, UniProt P21730)
T1 construct: 10x His (N); FLAG (N); StrepII (C); made in house; host or cells: Sf9 insect cells (recombinant baculovirus, pOET5 / flashBAC); membrane preparation
T1 sequence (P21730 1-350): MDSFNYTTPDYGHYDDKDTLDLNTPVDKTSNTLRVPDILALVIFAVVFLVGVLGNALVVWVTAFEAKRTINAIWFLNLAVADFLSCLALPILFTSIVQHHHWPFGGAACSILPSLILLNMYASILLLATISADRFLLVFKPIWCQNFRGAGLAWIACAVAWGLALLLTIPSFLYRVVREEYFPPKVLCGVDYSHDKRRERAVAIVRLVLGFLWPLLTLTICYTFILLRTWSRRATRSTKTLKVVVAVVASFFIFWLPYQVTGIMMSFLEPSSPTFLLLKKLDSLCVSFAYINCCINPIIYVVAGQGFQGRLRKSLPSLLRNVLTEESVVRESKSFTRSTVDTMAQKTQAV
Test: Specific binding of [^3H]‐C5a^CF to C5aR (optimization of translation and assay conditions)
Experimental: For the cell‐free synthesis of radioligands one amino acid was replaced with a tritiated variant depending on its abundance in the respective ligand. Complement 5a was produced in the presence of 1 μM (FM)/2.1 μM (RM) L‐[2,3‐^3H]‐proline (specific activity 55 Ci·mmol^−1, Perkin Elmer, Boston, USA). […] The cell‐free reaction was initiated omitting the labelled amino acid and incubated at 30 °C, 100 rpm for 3 h. The reaction mix was removed from the D‐tube™ dialyzer and incubated with 0.2 mL Ni‐NTA magnetic agarose beads suspension (Qiagen) per mL reaction mix for 10 min to remove undesired side products translated with endogenously present amino acids from the S30 extract. The reaction mix was removed from the magnetic beads, supplemented with 0.25 mM L‐histidine to account for potential losses in the IMAC (immobilized metal ion affinity chromatography) step and the tritium‐labelled amino acid. The feeding mix was discarded and replaced with a fresh mix containing the labelled amino acid. Reactions were incubated at 30 °C in a water bath under constant shaking overnight.
For purification of tritium‐labelled complement 5a ([^3H]‐C5a^CF), reaction and feeding mixes were pooled and applied to a 1 mL HisTrap FF column (GE Healthcare) equilibrated in buffer C^C5a using a peristaltic pump. The column was washed with 4 CV buffer C1^C5a, 4 CV buffer C2^C5a and eluted in 4 CV buffer D^C5a. […] Buffer exchange to buffers C^C5a or C^ET−1 was performed by repeated concentration and dilution in a 3 kDa MWCO concentrator (Amicon) and protein concentration was calculated using the specific activity of incorporated [^3H]‐Pro or [^3H]‐Phe residues.
The complement 5a receptor was coproduced with Gαi2 in Sf9 insect cells. The cDNA encoding the human complement 5a receptor flanked by an N‐terminal 10x His and FLAG tag and a C‐terminal StrepII tag was cloned into the pOET5 transfer vector (Oxford Expression Technologies, Oxford, UK). pOET5 contains two expression cassettes, the receptor is expressed under the control of a polyhedron promoter; Gαi2 expression is regulated by a p10 promoter. […]

B1: [^3H]‐C5a^CF: cell‐free‐synthesized tritium‐labelled complement 5a with N‐terminal hexa‐histidine tag; contains three proline residues (protein, UniProt P01031 678-751, looked up)
C5a anaphylatoxin: TLQKKIEEIAAKYKHSVVKKCCYDGACVNNDETCEQRAARISLGPRCIKAFTECCVVASQLRANISHKDMQLGR
modifications: C5a anaphylatoxin tritium label
For B1, the “Specific binding to the C5aR” value (first translation trials, produced with DsbA and IMAC purified, no pretranslation step) was “only low and nonsignificant binding to the C5aR; also recorded: specific binding is low and nonsignificant”, the “Specific binding to the C5aR” value (pretranslation step plus NaCl in assay and wash buffer) was “further increases the detected specific binding” and the “Specific binding to the C5aR” value (with pretranslation step to remove endogenous proline) was “binding specifically to the C5aR and displaying low nonspecific background; also recorded: strongly increased (dark grey bar) and statistically significant”.
